Experimental data: patent US20220389097A1 (Genentech, published 2022)
Substitutions are numbered along the chain they refer to. Values belong to the binder of their own block, whether it stands above or below them. Where no end group is shown, it is not given here.

Experiments:
[1] = biological target: T1, human TREM2 on cells (human, UniProt Q9NZC2 19-230); experiment: cell-based or functional assay
T1 sequence: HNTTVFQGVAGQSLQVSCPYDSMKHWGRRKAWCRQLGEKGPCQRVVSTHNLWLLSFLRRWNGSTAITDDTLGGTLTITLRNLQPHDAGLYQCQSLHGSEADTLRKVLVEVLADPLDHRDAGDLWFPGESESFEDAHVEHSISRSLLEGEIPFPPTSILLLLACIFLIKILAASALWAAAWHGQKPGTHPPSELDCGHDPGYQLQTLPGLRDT

[2] = biological target: T2, soluble human TREM2 (sTREM2) (human, UniProt Q9NZC2 19-157); experiment: sandwich ELISA: test antibody coated as capture, sTREM2 from BMDM culture supernatant, biotinylated 3.17A9 as detection; normalised to 1.16B8
T2 construct: also called soluble TREM2; TREM2 ectodomain
T2 sequence: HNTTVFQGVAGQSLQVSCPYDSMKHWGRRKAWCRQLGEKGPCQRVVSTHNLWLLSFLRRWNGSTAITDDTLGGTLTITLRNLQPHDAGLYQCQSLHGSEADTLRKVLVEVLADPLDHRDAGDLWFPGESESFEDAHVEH
Description: For example, as shown in an Example 11 herein, the human TREM2 ELISA assay measured binding of antibodies to sTREM2 by coating onto plate wells the antibody to be tested as capture reagents and with biotinylated IgV-reactive monoclonal antibody 3.17A9 used as the detection reagent. Control antibody 1.16B8 was used as a positive control antibody to establish the standard for sTREM2 binding.
A human TREM2 ELISA assay was used to measure binding of more than forty antibodies to soluble TREM2 (sTREM2) as follows: test anti-hTREM2 antibodies were coated onto plate wells as capture reagents and a biotinylated IgV-reactive monoclonal antibody, 3.17A9, was used as the detection reagent. Antibody 1.16B8 was used as a control antibody to establish the standard for sTREM2 binding. Plates coated with test or control antibody were incubated with diluted culture supernatant from bone marrow-derived macrophage (BMDM) cultures from transgenic mice expressing hTREM2. sTREM2 is constitutively produced by the BMDM cultures expressing hTREM2 and shed into the culture supernatant. Measurements were recorded at 450 nm for detection and 570 nm for background. The 3.17A9/1.16B8 antibody pair was selected over reagents provided in the R&D Systems kit as the commercial reagents were not compatible with sTREM2 detection of some of the antibodies tested. Control antibody 1.16B8 light chain sequence is shown in SEQ ID NO: 170, and its heavy chain sequence is shown in SEQ ID NO: 171.

[3] = biological target: T3, 159-175 (also: biotinylated (site not given here)); experiment: peptide ELISA with IgG, grey-scale heat map of OD650nm
T3 construct: member of the group m13
T3 peptide: ISRSLLEGEIPFPPTSI

[4] = biological target: T4, soluble monomeric human TREM2 (human, UniProt Q9NZC2 19-174, limits assumed); experiment: SPR (Biacore T200), 37 C; IgG on anti-CH1 chip, soluble monomeric TREM2
T4 construct: Not the same as shed sTREM2; also called soluble monomeric TREM2
T4 sequence: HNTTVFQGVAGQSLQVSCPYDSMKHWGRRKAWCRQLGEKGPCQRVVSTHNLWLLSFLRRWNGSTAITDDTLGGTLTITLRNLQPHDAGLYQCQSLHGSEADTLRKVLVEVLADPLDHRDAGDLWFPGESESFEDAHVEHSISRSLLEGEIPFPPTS

[5] = biological target: T5, hTREM2 stalk antigen (human, UniProt Q9NZC2 129-174); experiment: SPR (Biacore T200), 37 C; TREM2 stalk antigen on anti-human IgG1 Fc chip, antibody in solution
T5 construct: also called human TREM2 stalk
T5 chain: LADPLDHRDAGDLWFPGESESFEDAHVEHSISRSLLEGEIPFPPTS
Procedure: (§1) Forty-six rat anti-human antibodies were tested for binding affinity to the hTREM2 and cynomolgus TREM2 stalk. Antibody binding affinities for hTREM2 stalk and cynomolgus TREM2 stalk were measured by surface plasmon resonance (SPR) using a Biacore™ T200 apparatus. TREM2 stalk antigens (human or cynomolgus) were immobilized on anti-human IgG1 Fc Biacore™ chips and anti-TREM2 antibody clones were bound to immobilized TREM2 at 37° C. Binding affinities, KD (nM) were measured and recorded.
(§2) Several antibodies were selected for binding measurements against cynomolgus TREM2 stalk. […] These four antibodies are referred to collectively below as the “3.10C2 group” of antibodies.

[6] = biological target: T6, cynomolgus TREM2 stalk antigen (cynomolgus monkey, UniProt A0A2K5UY34 159-204, not fully specified); experiment: as above
T6 construct: domain: stalk
T6 chain: T5 chain with F15V
Procedure: as §1, §2

[7] = biological target: T7, hTREM2 stalk peptide 149-168 (human, biotinylated); experiment: ELISA: biotinylated peptide captured on streptavidin plate, antibody detected with anti-mouse IgG-HRP
T7 peptide: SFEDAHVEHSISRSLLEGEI
Description: (§3) The antibody epitopes were mapped to the stalk region of human TREM2 using enzyme-linked immunosorbent assay (ELISA). Overlapping biotinylated peptides were captured in ELISA plates coated with streptavidin. The binding of antibodies to peptides was detected with an anti-mouse IgG conjugated to horseradish peroxidase.

[8] = biological target: T8, hTREM2 stalk peptide 146-161 (human, also: biotinylated (site not given here)); experiment: as above
T8 peptide: ESESFEDAHVEHSISR
Description: as §3

[9] = biological target: T9, hTREM2 stalk peptide 146-169 (human, biotinylated); experiment: as above
T9 peptide: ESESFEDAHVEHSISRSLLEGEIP
Description: as §3

[10] = biological target: T10, hTREM2 stalk peptide 151-165 (human, also: biotinylated (position not given here)); experiment: as above
T10 peptide: EDAHVEHSISRSLLE
Description: as §3

[11] = biological target: T11, 155-169 (also: biotinylated (site not given here)); experiment: as above
T11 construct: member of the group m13
T11 peptide: VEHSISRSLLEGEIP
Description: as §3

[12] = biological target: T3, 159-175; experiment: as above
Description: as §3

[13] = biological target: T12, 154-164 (also: biotinylated (site not given here)); experiment: as above
T12 construct: member of the group m13; also called hTREM2 stalk 154-164
T12 peptide: HVEHSISRSLL
Description: as §3

[14] = biological target: T13, 139-158 (biotinylated (site not given)); experiment: as above
T13 construct: member of the group m13
T13 peptide: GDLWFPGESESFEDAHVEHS
Description: as §3

[15] = biological target: T14, 129-148 (biotinylated (site not given)); experiment: as above
T14 construct: member of the group m13
T14 peptide: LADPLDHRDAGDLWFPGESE
Description: as §3

[16] = biological target: T15, 152-161 (also: biotinylated (site not given here)); experiment: as above
T15 construct: member of the group m13
T15 peptide: DAHVEHSISR
Description: as §3

[17] = biological target: T16, hTREM2 stalk peptide residues 129-175 (human, biotinylated); experiment: as above
T16 construct: also called human TREM2 stalk peptide
T16 peptide: T5 chain
Description: as §3

- EC50, Jurkat NFAT luciferase reporter cells [1]: 0.04 µg/mL
- binding result [2]: no binding
B1: rat Para.09- LC 3.27H7 mIgG2a LALAPG (antibody, V domains shown)
VH: EVQLVETGGSLVQPGKSLRLTCATSGFPFSNVWLHWVRQSPEKHPEWVAHIKAKSDNYATYYAESVKGRFTISRDDSKSSVFLQMNSLKEEDTAIYYCTDILEYWGQGTLVTVSS
VL: DVVLTQAPLSVSVTPGESASISCRSSRSLLTSKGITSLYWYLQKPGMSPHLLIYRMSNLASGIPDRFSGSGSETDFTLKISEVEPEDVGVYYCAQFLVYPYTFGAGTKLELKR
notes: Mouse IgG2a LALAPG constant region; also called Rat para.09 mIgG2a LALAPG; Para.09. mIgG2a LALAPG

- binding result [3]: no binding
B2: Para.09 IgG with the 3.18E5 light chain (antibody, V domains shown)
VH: B1 VH
VL: DTVLTQAPLSVSVTPGESASISCRSNKSLLGIRDITSLYWYLQKPGKSPQLLIYRMSNLASGVPDRFSGSGSETDFTLKISEVETEDVGVYYCAQFLRYPYTFGPGTKLELK

- binding result [3]: no binding
- Kd [4]: 11 pM
- koff [4]: 2.1e-05 s⁻¹
- kon [4]: 2e+06 M⁻¹ s⁻¹
B3: Para.09 IgG with the 3.27H7 light chain (antibody, V domains shown)
VH: B1 VH
VL: DVVLTQAPLSVSVTPGESASISCRSSRSLLTSKGITSLYWYLQKPGMSPHLLIYRMSNLASGIPDRFSGSGSETDFTLKISEVEPEDVGVYYCAQFLVYPYTFGAGTKLELK
notes: also called rat Para.09; Para.09-L27H7

- binding result [3]: no binding
B4: Para.09 IgG with the 3.10C2 light chain (antibody, V domains shown)
VH: B1 VH
VL: B2 VL with V11L, N26S, I32V

- binding result [3]: no binding
B5: Para.09 IgG with the 3.50G1 light chain (antibody, V domains shown)
VH: B1 VH
VL: B2 VL with Y41F, K112Q

- binding result [2]: no binding
B6: rat 3.18E5 mIgG2a LALAPG (antibody, V domains shown)
VH: EVQLVETGGSLVQPGKSLKLTCATSGFPFSNVWMHWVRQSPEKQLEWIAHIKAKSDNYATYYAESVKGRFTISRDDSKTTIYLQMNSLKEADTAIYYCTGLDYWGQGVMVTVSS
VL: B2 VL
notes: Mouse IgG2a LALAPG constant region

- Kd [5]: 260 pM
- Kd [6]: 300 pM
- A620 absorbance (ELISA) [7]: 1.46 A620
- A620 absorbance (ELISA) [8]: 2.89 A620
- A620 absorbance (ELISA) [9]: 1.48 A620
- A620 absorbance (ELISA) [10]: 2.42 A620
- A620 absorbance (ELISA) [11]: 0.14 A620
- A620 absorbance (ELISA) [12]: 0.07 A620
- A620 absorbance (ELISA) [13]: 0.4 A620
- A620 absorbance (ELISA) [14]: 0.51 A620
- A620 absorbance (ELISA) [15]: 0.28 A620
- A620 absorbance (ELISA) [16]: 0.15 A620
- A620 absorbance (ELISA) [17]: 1.65 A620
B7: 3.18E5 (rat anti-human TREM2 antibody) (antibody, IgG2a, V domains shown)
VH: B6 VH
VL: B2 VL
notes: Whole IgG

- EC50, Jurkat NFAT luciferase reporter cells [1]: 0.28 µg/mL
- binding result [2]: no binding
B8: rat 3.10C2 mIgG2a LALAPG (antibody, V domains shown)
VH: B6 VH with T80S, A91D
VL: B2 VL with V11L, N26S, I32V
notes: also called Rat 3.10C2 mIgG1a LALAPG

- binding result [2]: no binding
B9: rat 3.50G1 mIgG2a LALAPG (antibody, V domains shown)
VH: B6 VH with T80S, E90D, A91D
VL: B2 VL with Y41F, K112Q
notes: as for B6

- Kd [5]: 220 pM
- Kd [6]: 260 pM
B10: 3.27H7 (rat anti-human TREM2 antibody) (antibody, V domains shown)
VH: EVQLVETGGSLVQPGGSLKLTCATSGFPFSNVWLHWIRRSPEKQLEWVAQIKARSDNYATYYAESVKGRFIVSRDDSKTTIYLQMNNLKEEDTAIYYCTGLDYWGQGVMVTVSS
VL: B3 VL
notes: Whole IgG

- binding result [2]: no binding
B11: rat 3.27H7 mIgG2a LALAPG (antibody, V domains shown)
VH: B10 VH
VL: B3 VL
notes: as for B6
